The values that follow are results of earlier work, collected in article PMC7349879.

One data set concerns the target EpCAM (Homo sapiens) (UniProt P16422).
Data set [1] deals with EpCAM cis-dimer (Homo sapiens) (UniProt P16422).
The next data set has as its target β-catenin (Homo sapiens) (UniProt P35222).
Sequence of UniProt P35222 (P35222 2-781): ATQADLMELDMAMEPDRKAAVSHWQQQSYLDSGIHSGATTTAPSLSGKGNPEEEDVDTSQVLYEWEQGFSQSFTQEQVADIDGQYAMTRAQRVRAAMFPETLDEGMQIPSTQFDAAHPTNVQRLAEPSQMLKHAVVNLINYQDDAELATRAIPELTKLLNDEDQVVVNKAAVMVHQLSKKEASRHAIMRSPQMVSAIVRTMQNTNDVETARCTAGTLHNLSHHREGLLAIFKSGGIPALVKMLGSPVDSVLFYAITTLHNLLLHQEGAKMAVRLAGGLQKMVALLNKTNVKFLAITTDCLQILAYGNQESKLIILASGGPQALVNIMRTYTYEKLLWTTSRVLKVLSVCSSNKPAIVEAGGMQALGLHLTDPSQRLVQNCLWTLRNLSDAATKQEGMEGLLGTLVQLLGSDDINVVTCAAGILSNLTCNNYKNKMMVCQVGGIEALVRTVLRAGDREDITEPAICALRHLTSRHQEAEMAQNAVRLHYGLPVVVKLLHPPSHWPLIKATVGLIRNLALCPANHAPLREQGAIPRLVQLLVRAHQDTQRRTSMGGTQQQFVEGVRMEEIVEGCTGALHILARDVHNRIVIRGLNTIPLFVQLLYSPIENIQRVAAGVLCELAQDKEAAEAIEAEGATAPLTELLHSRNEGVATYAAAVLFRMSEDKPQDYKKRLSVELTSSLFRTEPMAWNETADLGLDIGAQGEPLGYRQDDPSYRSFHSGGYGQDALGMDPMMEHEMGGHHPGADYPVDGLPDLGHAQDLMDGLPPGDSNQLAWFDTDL

Consider EpCAM (from UniProt P16422), for which the Kd (as a rule, the concentration at which binding is half-saturated) in the data set with EpCAM (Homo sapiens) was below 0.01 µM.
Consider EpCAM cis-dimer (from UniProt P16422), for which the Kd in data set [1] was 10 µM.
Turning to FHL2 (from UniProt Q14192), the Kd in the data set with β-catenin (Homo sapiens) is 1.08 µM.
